What all share (experiment): cell-based or functional assay
For assay [1], the target named is T1, glucose-dependent insulinotropic peptide (gastric inhibitory polypeptide) receptor (human, UniProt P48546 22-466).
T1 sequence (looked up): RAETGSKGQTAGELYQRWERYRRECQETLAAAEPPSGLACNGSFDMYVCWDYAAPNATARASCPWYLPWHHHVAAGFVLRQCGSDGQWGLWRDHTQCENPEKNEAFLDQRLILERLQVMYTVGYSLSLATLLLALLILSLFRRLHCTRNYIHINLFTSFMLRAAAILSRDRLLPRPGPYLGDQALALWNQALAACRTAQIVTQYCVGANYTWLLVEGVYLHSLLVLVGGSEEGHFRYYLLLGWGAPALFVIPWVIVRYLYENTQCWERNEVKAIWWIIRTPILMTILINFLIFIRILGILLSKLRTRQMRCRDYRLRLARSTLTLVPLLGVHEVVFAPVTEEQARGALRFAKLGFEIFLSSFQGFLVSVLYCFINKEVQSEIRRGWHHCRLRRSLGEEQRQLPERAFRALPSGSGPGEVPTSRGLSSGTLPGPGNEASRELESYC

The target in a further assay is glucagon receptor (human, UniProt P47871 26-477).
Another assay addresses GLP-1 receptor (human, UniProt P43220 24-463).

Starred links: 1 amine or outer side, 2 acyl side, 3 side chain; linkers in the order of their positions; H or OH if unused. Non-standard residues stand in square brackets, D forms with d. Groups on a side chain read outwards from the residue. No end group written: not given here. *: point of attachment. γGlu = O=C(O)[C@H](CCC(=O)[*:2])N[*:1]; Palmitoyl = CCCCCCCCCCCCCCCC(=O)*; αMeF = C[C@](N)(Cc1ccccc1)C(=O)O; αMeK = C[C@](N)(CCCCN)C(=O)O; αMeS = C[C@](N)(CO)C(=O)O; Aib = CC(C)(N)C(=O)O

Chain of glucagon receptor (P47871 26-477): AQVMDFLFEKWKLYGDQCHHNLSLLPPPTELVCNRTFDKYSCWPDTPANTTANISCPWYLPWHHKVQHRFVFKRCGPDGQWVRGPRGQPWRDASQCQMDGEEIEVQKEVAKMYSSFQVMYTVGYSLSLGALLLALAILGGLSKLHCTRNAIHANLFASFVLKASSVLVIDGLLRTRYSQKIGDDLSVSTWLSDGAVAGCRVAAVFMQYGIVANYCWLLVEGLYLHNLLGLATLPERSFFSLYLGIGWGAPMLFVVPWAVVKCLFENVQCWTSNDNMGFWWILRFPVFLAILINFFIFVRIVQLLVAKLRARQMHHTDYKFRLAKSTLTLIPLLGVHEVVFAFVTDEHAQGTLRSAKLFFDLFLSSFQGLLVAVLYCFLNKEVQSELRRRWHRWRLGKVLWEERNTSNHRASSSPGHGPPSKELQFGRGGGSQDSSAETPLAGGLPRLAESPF

B1: SEQ ID NO 74 (peptide)
peptide: H[Aib]EGS[αMeF]TSDV[αMeS]S[αMeF]LEGEAA[αMeK]E[αMeF]IA[αMeF]K([γGlu-Palmitoyl])V[αMeK]GG-NH2
modifications: N-terminus assumed
SMILES: CCCCCCCCCCCCCCCC(=O)N[C@@H](CCC(=O)NCCCC[C@H](NC(=O)[C@](C)(Cc1ccccc1)NC(=O)[C@H](C)NC(=O)[C@@H](NC(=O)[C@](C)(Cc1ccccc1)NC(=O)[C@H](CCC(=O)O)NC(=O)[C@](C)(CCCCN)NC(=O)[C@H](C)NC(=O)[C@H](C)NC(=O)[C@H](CCC(=O)O)NC(=O)CNC(=O)[C@H](CCC(=O)O)NC(=O)[C@H](CC(C)C)NC(=O)[C@](C)(Cc1ccccc1)NC(=O)[C@H](CO)NC(=O)[C@](C)(CO)NC(=O)[C@@H](NC(=O)[C@H](CC(=O)O)NC(=O)[C@H](CO)NC(=O)[C@@H](NC(=O)[C@](C)(Cc1ccccc1)NC(=O)[C@H](CO)NC(=O)CNC(=O)[C@H](CCC(=O)O)NC(=O)C(C)(C)NC(=O)[C@@H](N)Cc1c[nH]cn1)[C@@H](C)O)C(C)C)[C@@H](C)CC)C(=O)N[C@H](C(=O)N[C@@](C)(CCCCN)C(=O)NCC(=O)NCC(N)=O)C(C)C)C(=O)O
Turning to B1, the “Primary assay EC50 (cAMP), n1” value in assay [1] was found to be 28 nM; in the assay with glucagon receptor, 28 nM; with GLP-1 receptor, 0.0023 nM. For the same molecule, the “Primary assay EC50 (cAMP), n2” value in assay [1] amounted to 28 nM; with glucagon receptor, 28 nM; with GLP-1 receptor, 0.002 nM. In the assay with GLP-1 receptor, the “Primary assay EC50 (cAMP), Mean pM GLP-1R” value turned out to be 2.1 pM.

B2: SEQ ID NO 77 (peptide)
peptide: H[Aib]EGS[αMeF]TSDV[αMeS]S[αMeF]LEGEAA[αMeK]E[αMeF]K([γGlu-Palmitoyl])A[αMeF]VV[αMeK]GG-NH2
modifications: N-terminus assumed
SMILES: CCCCCCCCCCCCCCCC(=O)N[C@@H](CCC(=O)NCCCC[C@H](NC(=O)[C@](C)(Cc1ccccc1)NC(=O)[C@H](CCC(=O)O)NC(=O)[C@](C)(CCCCN)NC(=O)[C@H](C)NC(=O)[C@H](C)NC(=O)[C@H](CCC(=O)O)NC(=O)CNC(=O)[C@H](CCC(=O)O)NC(=O)[C@H](CC(C)C)NC(=O)[C@](C)(Cc1ccccc1)NC(=O)[C@H](CO)NC(=O)[C@](C)(CO)NC(=O)[C@@H](NC(=O)[C@H](CC(=O)O)NC(=O)[C@H](CO)NC(=O)[C@@H](NC(=O)[C@](C)(Cc1ccccc1)NC(=O)[C@H](CO)NC(=O)CNC(=O)[C@H](CCC(=O)O)NC(=O)C(C)(C)NC(=O)[C@@H](N)Cc1c[nH]cn1)[C@@H](C)O)C(C)C)C(=O)N[C@@H](C)C(=O)N[C@@](C)(Cc1ccccc1)C(=O)N[C@H](C(=O)N[C@H](C(=O)N[C@@](C)(CCCCN)C(=O)NCC(=O)NCC(N)=O)C(C)C)C(C)C)C(=O)O
Turning to B2, in assay [1], the “Primary assay EC50 (cAMP), n1” value is 28 nM and the “Primary assay EC50 (cAMP), n2” value was 28 nM. Also, in the assay with glucagon receptor, the “Primary assay EC50 (cAMP), n1” value came to 28 nM and the “Primary assay EC50 (cAMP), n2” value came out at 28 nM. Further, in the assay with GLP-1 receptor, the “Primary assay EC50 (cAMP), Mean pM GLP-1R” value turned out to be 1860 pM; the “Primary assay EC50 (cAMP), n1” value was determined as 1.9 nM; the “Primary assay EC50 (cAMP), n2” value came out at 1.8 nM.

B3: SEQ ID NO 75 (peptide)
peptide: H[Aib]EGS[αMeF]TSDV[αMeS]S[αMeF]LEGEAA[αMeK]E[αMeF]IAK([γGlu-Palmitoyl])VV[αMeK]GG-NH2
modifications: N-terminus assumed
SMILES: CCCCCCCCCCCCCCCC(=O)N[C@@H](CCC(=O)NCCCC[C@H](NC(=O)[C@H](C)NC(=O)[C@@H](NC(=O)[C@](C)(Cc1ccccc1)NC(=O)[C@H](CCC(=O)O)NC(=O)[C@](C)(CCCCN)NC(=O)[C@H](C)NC(=O)[C@H](C)NC(=O)[C@H](CCC(=O)O)NC(=O)CNC(=O)[C@H](CCC(=O)O)NC(=O)[C@H](CC(C)C)NC(=O)[C@](C)(Cc1ccccc1)NC(=O)[C@H](CO)NC(=O)[C@](C)(CO)NC(=O)[C@@H](NC(=O)[C@H](CC(=O)O)NC(=O)[C@H](CO)NC(=O)[C@@H](NC(=O)[C@](C)(Cc1ccccc1)NC(=O)[C@H](CO)NC(=O)CNC(=O)[C@H](CCC(=O)O)NC(=O)C(C)(C)NC(=O)[C@@H](N)Cc1c[nH]cn1)[C@@H](C)O)C(C)C)[C@@H](C)CC)C(=O)N[C@H](C(=O)N[C@H](C(=O)N[C@@](C)(CCCCN)C(=O)NCC(=O)NCC(N)=O)C(C)C)C(C)C)C(=O)O
Regarding B3, in assay [1], the “Primary assay EC50 (cAMP), n1” value stood at 28 nM and the “Primary assay EC50 (cAMP), n2” value turned out to be 28 nM. Further, in the assay with glucagon receptor, the “Primary assay EC50 (cAMP), n1” value came to 28 nM and the “Primary assay EC50 (cAMP), n2” value stood at 28 nM. Further, in the assay with GLP-1 receptor, the “Primary assay EC50 (cAMP), Mean pM GLP-1R” value amounted to 1.7 pM; the “Primary assay EC50 (cAMP), n1” value amounted to 0.002 nM; the “Primary assay EC50 (cAMP), n2” value stood at 0.0014 nM.

B4: SEQ ID NO 73 (peptide)
peptide: H[Aib]EGS[αMeF]TSDV[αMeS]S[αMeF]LEGEAA[αMeK]E[αMeF]IA[αMeF]VK([γGlu-Palmitoyl])[αMeK]GG-NH2
modifications: N-terminus assumed
SMILES: CCCCCCCCCCCCCCCC(=O)N[C@@H](CCC(=O)NCCCC[C@H](NC(=O)[C@@H](NC(=O)[C@](C)(Cc1ccccc1)NC(=O)[C@H](C)NC(=O)[C@@H](NC(=O)[C@](C)(Cc1ccccc1)NC(=O)[C@H](CCC(=O)O)NC(=O)[C@](C)(CCCCN)NC(=O)[C@H](C)NC(=O)[C@H](C)NC(=O)[C@H](CCC(=O)O)NC(=O)CNC(=O)[C@H](CCC(=O)O)NC(=O)[C@H](CC(C)C)NC(=O)[C@](C)(Cc1ccccc1)NC(=O)[C@H](CO)NC(=O)[C@](C)(CO)NC(=O)[C@@H](NC(=O)[C@H](CC(=O)O)NC(=O)[C@H](CO)NC(=O)[C@@H](NC(=O)[C@](C)(Cc1ccccc1)NC(=O)[C@H](CO)NC(=O)CNC(=O)[C@H](CCC(=O)O)NC(=O)C(C)(C)NC(=O)[C@@H](N)Cc1c[nH]cn1)[C@@H](C)O)C(C)C)[C@@H](C)CC)C(C)C)C(=O)N[C@@](C)(CCCCN)C(=O)NCC(=O)NCC(N)=O)C(=O)O
With B4, the “Primary assay EC50 (cAMP), n1” value in assay [1] was found to be 28 nM; with glucagon receptor, 28 nM; in the assay with GLP-1 receptor it was 0.13 nM. Further, the “Primary assay EC50 (cAMP), n2” value in assay [1] was 28 nM; in the assay with glucagon receptor it was 28 nM; with GLP-1 receptor, 0.16 nM. The “Primary assay EC50 (cAMP), Mean pM GLP-1R” value with GLP-1 receptor worked out at 146 pM.

B5: SEQ ID NO 10 (peptide)
peptide: H[Aib]EGS[αMeF]TSDVSS[αMeF]VEGEAA[αMeK]E[αMeF]IA[αMeF]VV[αMeK]GG-NH2
modifications: N-terminus assumed
SMILES: CC[C@H](C)[C@H](NC(=O)[C@](C)(Cc1ccccc1)NC(=O)[C@H](CCC(=O)O)NC(=O)[C@](C)(CCCCN)NC(=O)[C@H](C)NC(=O)[C@H](C)NC(=O)[C@H](CCC(=O)O)NC(=O)CNC(=O)[C@H](CCC(=O)O)NC(=O)[C@@H](NC(=O)[C@](C)(Cc1ccccc1)NC(=O)[C@H](CO)NC(=O)[C@H](CO)NC(=O)[C@@H](NC(=O)[C@H](CC(=O)O)NC(=O)[C@H](CO)NC(=O)[C@@H](NC(=O)[C@](C)(Cc1ccccc1)NC(=O)[C@H](CO)NC(=O)CNC(=O)[C@H](CCC(=O)O)NC(=O)C(C)(C)NC(=O)[C@@H](N)Cc1c[nH]cn1)[C@@H](C)O)C(C)C)C(C)C)C(=O)N[C@@H](C)C(=O)N[C@@](C)(Cc1ccccc1)C(=O)N[C@H](C(=O)N[C@H](C(=O)N[C@@](C)(CCCCN)C(=O)NCC(=O)NCC(N)=O)C(C)C)C(C)C
Turning to B5, in assay [1], the “Primary assay EC50 (cAMP), n1” value came to 100 nM and the “Primary assay EC50 (cAMP), n2” value stood at 100 nM. In the assay with glucagon receptor, the “Primary assay EC50 (cAMP), n1” value came out at 100 nM and the “Primary assay EC50 (cAMP), n2” value turned out to be 100 nM. Also, in the assay with GLP-1 receptor, the “Primary assay EC50 (cAMP), Mean pM GLP-1R” value is 90 pM; the “Primary assay EC50 (cAMP), n1” value stood at 0.087 nM; the “Primary assay EC50 (cAMP), n2” value came to 0.093 nM.

B6: SEQ ID NO 76 (peptide)
peptide: H[Aib]EGS[αMeF]TSDV[αMeS]S[αMeF]LEGEAA[αMeK]E[αMeF]IK([γGlu-Palmitoyl])[αMeF]VV[αMeK]GG-NH2
modifications: N-terminus assumed
SMILES: CCCCCCCCCCCCCCCC(=O)N[C@@H](CCC(=O)NCCCC[C@H](NC(=O)[C@@H](NC(=O)[C@](C)(Cc1ccccc1)NC(=O)[C@H](CCC(=O)O)NC(=O)[C@](C)(CCCCN)NC(=O)[C@H](C)NC(=O)[C@H](C)NC(=O)[C@H](CCC(=O)O)NC(=O)CNC(=O)[C@H](CCC(=O)O)NC(=O)[C@H](CC(C)C)NC(=O)[C@](C)(Cc1ccccc1)NC(=O)[C@H](CO)NC(=O)[C@](C)(CO)NC(=O)[C@@H](NC(=O)[C@H](CC(=O)O)NC(=O)[C@H](CO)NC(=O)[C@@H](NC(=O)[C@](C)(Cc1ccccc1)NC(=O)[C@H](CO)NC(=O)CNC(=O)[C@H](CCC(=O)O)NC(=O)C(C)(C)NC(=O)[C@@H](N)Cc1c[nH]cn1)[C@@H](C)O)C(C)C)[C@@H](C)CC)C(=O)N[C@@](C)(Cc1ccccc1)C(=O)N[C@H](C(=O)N[C@H](C(=O)N[C@@](C)(CCCCN)C(=O)NCC(=O)NCC(N)=O)C(C)C)C(C)C)C(=O)O
As to B6, in assay [1], the “Primary assay EC50 (cAMP), n1” value was found to be 27 nM and the “Primary assay EC50 (cAMP), n2” value was 27 nM. In the assay with glucagon receptor, the “Primary assay EC50 (cAMP), n1” value was 27 nM and the “Primary assay EC50 (cAMP), n2” value is 27 nM. Also, in the assay with GLP-1 receptor, the “Primary assay EC50 (cAMP), Mean pM GLP-1R” value came out at 7.2 pM; the “Primary assay EC50 (cAMP), n1” value turned out to be 0.0084 nM; the “Primary assay EC50 (cAMP), n2” value turned out to be 0.006 nM.

The record behind these values is patent US20200079833A1 (AstraZeneca / MedImmune, published 2020).
